The target in this experiment is T1, human C5a receptor (C5aR) on purified human neutrophils (human, UniProt P21730 1-350).
T1 construct: whole, on cells
T1 sequence (looked up): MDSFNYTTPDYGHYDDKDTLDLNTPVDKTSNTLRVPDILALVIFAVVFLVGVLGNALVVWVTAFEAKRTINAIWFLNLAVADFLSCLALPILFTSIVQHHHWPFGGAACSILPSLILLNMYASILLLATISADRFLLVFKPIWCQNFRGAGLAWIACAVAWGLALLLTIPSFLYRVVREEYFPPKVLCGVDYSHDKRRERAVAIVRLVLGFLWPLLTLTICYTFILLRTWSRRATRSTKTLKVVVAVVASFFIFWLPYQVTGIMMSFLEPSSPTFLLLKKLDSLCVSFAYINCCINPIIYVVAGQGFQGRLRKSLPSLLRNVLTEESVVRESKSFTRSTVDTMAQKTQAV
Put plainly: displacement of 125I-C5a from purified human neutrophils by unlabeled recombinant human C5a. As for the experimental part:
MAb137-26 was serially diluted in 1.5 ml Eppendorf centrifuged tubes with a binding buffer (1% BSA in RPMI1640 medium) to give final concentrations ranging from 640 nM to 0.04 nM. […] Purified recombinant human C5a (Sigma, St. Louis, Mo. was used as positive control, whereas an isotype-matched irrelevant monoclonal antibody was used as negative control. For the maximum binding of ¹²⁵I-C5a, 36 μl of the binding buffer without the antibodies or C5a was used instead. Fifty microliters of the neutrophil suspension was added to each tube for incubation on ice. At the end of the 40-minute incubation period, the mixture from each tube was transferred to the top of 800 μl of a separation buffer (6% BSA in PBS) in another Eppendorf tube. The tubes were than centrifuged at 2000×g for 3 minutes at room temperature. After the supernatant was aspirated, the cell pellet was re-suspended in 0.5 ml of de-ionized water to lyse the cells. The cell lysate was then mixed with 3 ml of Ultima Gold scintillation fluid (Packard Instrument, Meriden, Conn.) for radioactive counting. The percent inhibition of ¹²⁵I-C5a binding is defined as: [Cpmₘₐₓ−Cpmbkg]−[Cpmca−Cpmbkg]/[Cpmₘₐₓ−Cpmbkg]×100 where: Cpmₘₐₓ=maximum count per minute without competing agents; Cpmbkg=background cpm without addition of ¹²⁵I-C5a; and Cpmca=cpm with competing agents.
For orientation: In a radioligand displacement assay an active substance lowers the binding of a labelled ligand.

B1: human C5a (ligand, UniProt P01031 678-751, looked up)
chain: TLQKKIEEIAAKYKHSVVKKCCYDGACVNNDETCEQRAARISLGPRCIKAFTECCVVASQLRANISHKDMQLGR
notes: domain: C5a; Bought recombinant protein; also called recombinant C5a (Sigma); purified recombinant human C5a
For orientation: IC50 means the concentration needed to halve the response being measured. As to B1, the IC50 stood at 0.03 µM.

For the origin of these results see patent publication US20080118508A1 (published 2008).
